Measured values: PMC4285326, “Structure and interactions of the Bacillus subtilis sporulation inhibitor of DNA replication, SirA, with domain I of DnaA” (Molecular Microbiology, 2014)
Positions count from the first letter of the chain named. In names and notes the source's numbering stands.

T1: DnaA domain I (DnaA^DI), Bacillus subtilis, His-tag removed (Bacillus subtilis (strain 168), UniProt P05648)
T1 chain: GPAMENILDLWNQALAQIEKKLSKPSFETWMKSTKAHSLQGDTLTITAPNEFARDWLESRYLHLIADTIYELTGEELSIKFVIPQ

B1: SirA (sporulation inhibitor of DNA replication), Bacillus subtilis (natural protein, B. subtilis, UniProt P45707 1-148, looked up)
chain: MERHYYTYLIKEEFANHYFGRESVMFELFQDYHWTSLEKQQYEMTEKQIQYITQPIPILHMHQRLKMNLNKTDYRQLDYIYRIALPKAKGHATFMMKEHMIEIVASGDYEAETIFFEVLRKVSPCFLAMDFNSKRYGWLNPVKERNFV
modifications: 2-mercaptoethanol linked through a disulphide bond to Cys125 (seen in the crystal and by mass spectrometry)
notes: SirA, B. subtilis, amplified from genomic DNA, untagged; model has residues 2-141, Met1 and residues 142-148 disordered; Soluble only when coexpressed with DnaA^DI; A selenomethionine-substituted form was also crystallised for phasing; also called wild type SirA; native SirA; source: E. coli BL21 (DE3), coexpressed with His-DnaA^DI from pET-YSBLIC3C-DnaA^DISirA
B2: SirA Y18A, Bacillus subtilis (natural protein, B. subtilis, UniProt P45707 1-148, looked up)
chain: B1 chain with Y18A
notes: SirA, B. subtilis, untagged, with Tyr18Ala; also called Tyr18Ala; source: E. coli BL21, coexpressed with His-DnaA^DI, in soluble lysate
B3: SirA F14A, Bacillus subtilis (natural protein, B. subtilis, UniProt P45707 1-148, looked up)
chain: B1 chain with F14A
notes: SirA, B. subtilis, untagged, with Phe14Ala; also called Phe14Ala; source: E. coli BL21, coexpressed with His-DnaA^DI, in soluble lysate
B4: SirA Q48A, Bacillus subtilis (natural protein, B. subtilis, UniProt P45707 1-148, looked up)
chain: B1 chain with Q48A
notes: SirA, B. subtilis, untagged, with Gln48Ala; also called Gln48Ala; source: E. coli BL21, coexpressed with His-DnaA^DI, in soluble lysate
B5: DnaA domain I (DnaA^DI), Bacillus subtilis, His-tag removed (domain or fragment, B. subtilis)
chain: T1 chain
notes: DnaA, B. subtilis, domain I (N-terminal domain); residues 1-81 defined in the crystal, C-terminal Gln82 disordered; Calculated molecular mass 9.7 kDa; also called N-terminal domain of DnaA; not shown: His6, N-terminal, cleaved
B6: His-tagged DnaA domain I (His-DnaA^DI), Bacillus subtilis (domain or fragment, B. subtilis, UniProt P05648 1-82, looked up)
chain: MENILDLWNQALAQIEKKLSKPSFETWMKSTKAHSLQGDTLTITAPNEFARDWLESRYLHLIADTIYELTGEELSIKFVIPQ
notes: DnaA, B. subtilis, domain I (N-terminal domain); residues 1-81 defined in the crystal, C-terminal Gln82 disordered; 3C protease cleavable N-terminal His-tag, not cleaved in these experiments; also called His-tagged DnaA^DI; wild type DnaA^DI; source: E. coli BL21 (DE3), coexpressed with SirA from pET-YSBLIC3C-DnaA^DISirA; not shown: His6, N-terminal, kept

Assays:
[1] = target: T1, DnaA domain I (DnaA^DI), Bacillus …; assay: SEC-MALLS (1:1 heterodimer), Ni-NTA co-purification/pull-down, crystal structure; SirA soluble only when co-expressed with DnaA^DI; complex purified as such, not mixed from separate proteins
[2] = target: B5; assay: SEC-MALS; Superdex 75 HR 10/30, 50 mM Tris pH 8.5, 200 mM KCl, 0.5 ml min^-1; DnaA^DI at 1.0, 2.5 and 5.0 mg ml^-1; SirA-DnaA^DI at 0.5, 1.0 and 2.5 mg ml^-1; conditions: both partners purified
[3] = target: B6; assay: pull-down; soluble lysate of E. coli coexpressing His-DnaA^DI and untagged SirA loaded onto a HisTrap FF crude Ni-affinity column in 50 mM Tris pH 8.5, 200 mM KCl, 20 mM imidazole, 10 mM BME; washed; eluted with 500 mM imidazole; eluates normalised to DnaA^DI, SDS-PAGE with Coomassie staining, bands quantified with ImageJ; conditions: partners not purified
[4] = target: B1; assay: crystal structure; native crystals, space group P2_1, two complexes per asymmetric unit; 100 mM HEPES pH 7.5, 200 mM NH4 acetate, 25% PEG 3350, 1% DMF; SAD phasing from SeMet crystals, then molecular replacement; conditions: both partners purified
[5] = target: B1; assay: pull-down; soluble lysate of E. coli coexpressing His-DnaA^DI and untagged SirA loaded onto a HisTrap FF crude Ni-affinity column in 50 mM Tris pH 8.5, 200 mM KCl, 20 mM imidazole, 10 mM BME; washed; eluted with 500 mM imidazole; eluates normalised to DnaA^DI, SDS-PAGE with Coomassie staining, bands quantified with ImageJ; conditions: partners not purified

Binder: B1
binding result [1]: binds
stoichiometry N [2]: 1

Binder: B2
fold lower recovery relative to wild type SirA [3]: 2.5 fold

Binder: B3
fold lower recovery relative to wild type SirA [3]: 1.5 fold

Binder: B4
fold lower recovery relative to wild type SirA [3]: 1.5 fold

Binder: B5
binding result [4]: binds

Binder: B6
binding result [5]: binds
